From patent publication US20250215444 come the findings set out here.

Data set [1] concerns the target T1, Raptor1B fused N- or C-terminally to the GSrhino TAP tag, TAP-purified from PSB-D cell cultures.
T1 chain: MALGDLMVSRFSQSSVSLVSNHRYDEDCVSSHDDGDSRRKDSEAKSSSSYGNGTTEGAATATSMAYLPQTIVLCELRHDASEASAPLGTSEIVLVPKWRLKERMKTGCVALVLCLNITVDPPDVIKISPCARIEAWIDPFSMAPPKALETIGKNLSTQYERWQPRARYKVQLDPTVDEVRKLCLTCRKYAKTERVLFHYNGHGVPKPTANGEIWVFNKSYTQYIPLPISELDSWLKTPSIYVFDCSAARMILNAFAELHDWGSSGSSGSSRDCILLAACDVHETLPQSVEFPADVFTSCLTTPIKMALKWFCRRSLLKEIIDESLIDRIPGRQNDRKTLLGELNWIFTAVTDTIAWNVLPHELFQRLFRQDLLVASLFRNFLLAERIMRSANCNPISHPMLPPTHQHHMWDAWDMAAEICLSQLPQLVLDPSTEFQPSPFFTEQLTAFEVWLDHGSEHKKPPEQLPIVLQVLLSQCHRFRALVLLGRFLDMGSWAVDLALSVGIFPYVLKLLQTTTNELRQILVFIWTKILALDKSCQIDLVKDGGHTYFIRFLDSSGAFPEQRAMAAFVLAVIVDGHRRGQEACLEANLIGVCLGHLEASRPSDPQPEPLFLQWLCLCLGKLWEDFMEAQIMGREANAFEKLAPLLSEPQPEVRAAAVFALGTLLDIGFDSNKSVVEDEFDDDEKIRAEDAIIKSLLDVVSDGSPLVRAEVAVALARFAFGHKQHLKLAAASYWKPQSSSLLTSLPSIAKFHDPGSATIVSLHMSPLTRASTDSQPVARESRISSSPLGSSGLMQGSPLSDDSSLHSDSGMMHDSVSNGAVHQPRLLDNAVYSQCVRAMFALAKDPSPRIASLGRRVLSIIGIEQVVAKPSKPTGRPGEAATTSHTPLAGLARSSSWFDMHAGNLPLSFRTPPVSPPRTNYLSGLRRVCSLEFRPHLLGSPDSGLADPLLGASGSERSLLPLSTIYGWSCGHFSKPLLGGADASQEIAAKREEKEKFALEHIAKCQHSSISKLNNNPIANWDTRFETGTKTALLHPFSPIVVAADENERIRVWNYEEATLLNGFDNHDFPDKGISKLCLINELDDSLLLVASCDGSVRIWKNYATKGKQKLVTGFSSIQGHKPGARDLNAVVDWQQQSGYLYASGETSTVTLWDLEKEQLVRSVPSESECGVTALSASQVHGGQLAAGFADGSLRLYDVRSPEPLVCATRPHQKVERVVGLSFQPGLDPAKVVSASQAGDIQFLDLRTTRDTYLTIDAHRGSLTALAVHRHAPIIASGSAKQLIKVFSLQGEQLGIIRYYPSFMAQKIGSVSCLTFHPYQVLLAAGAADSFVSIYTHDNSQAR

For data set [2], the target named is T2, LST8-1 fused C-terminally to the GSrhino tag, TAP-purified from PSB-D cell cultures, Q9LV27.
T2 chain: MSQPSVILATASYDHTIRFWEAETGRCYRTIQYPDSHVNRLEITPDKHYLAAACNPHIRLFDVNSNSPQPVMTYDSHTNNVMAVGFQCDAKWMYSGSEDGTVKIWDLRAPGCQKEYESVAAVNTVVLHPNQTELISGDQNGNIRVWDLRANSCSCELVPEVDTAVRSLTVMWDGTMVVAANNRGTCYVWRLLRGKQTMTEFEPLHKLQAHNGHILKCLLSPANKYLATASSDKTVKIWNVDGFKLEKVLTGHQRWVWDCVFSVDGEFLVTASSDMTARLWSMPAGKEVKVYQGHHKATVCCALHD

B1: Recombinant RSK1 (ARSK1) kinase, His-MBP fusion produced in E. coli BL21 (protein)
chain: MAVFKKKKTSLTSLFLGCYKAKNVSKYEGGEKAVMKIRTCPAFKRLSLSDISDPSSPMSVMDDLSHSFTSQKLRLFTLSELRVITHNFSRSNMLGEGGFGPVYKGFIDDKVKPGIEAQPVAVKALDLHGHQGHREWLAEILFLGQLSNKHLVKLIGFCCEEEQRVLVYEYMPRGSLENQLFRRNSLAMAWGIRMKIALGAAKGLAFLHEAEKPVIYRDFKTSNILLDSDYNAKLSDFGLAKDGPEGEHTHVTTRVMGTQGYAAPEYIMTGHLTTMNDVYSFGVVLLELITGKRSMDNTRTRREQSLVEWARPMLRDQRKLERIIDPRLANQHKTEAAQVAASLAYKCLSQHPKYRPTMCEVVKVLESIQEVDIRKHDGNNNKEGKKFVDINKFRHHRKGKRRVNIAYSDSLVYKESKAKQNDGI
Take B1: the “in vitro kinase assay with ATP-P32, SDS-PAGE and autoradiography” value in data set [1] is “In the presence of ARSK1, the RAPTOR1B phosphosignal (lanes 2 and 3, rectangle) is higher compared to the control (lane 4; no ARSK1)”. In addition, the “in vitro kinase assay” value in data set [2] is “ARSK1 could not phosphorylate these two proteins”.
